From patent EP0568622B1

Biological target: rat/human corticotropin releasing factor (r/h CRF), 41-residue peptide (rat/human (same molecule))
Assay: method not stated

- Kd: 0.1 nM
Substance: recombinant rat CRF-binding protein (rCRF-BP), secreted by transfected COS7 cells
